In this experiment the target is GA733 antigen (37 kD protein expressed on colorectal carcinoma cells) (UniProt P16422). Nature of the experiment: cell-based or functional assay.
Chain of UniProt P16422 (P16422 24-314): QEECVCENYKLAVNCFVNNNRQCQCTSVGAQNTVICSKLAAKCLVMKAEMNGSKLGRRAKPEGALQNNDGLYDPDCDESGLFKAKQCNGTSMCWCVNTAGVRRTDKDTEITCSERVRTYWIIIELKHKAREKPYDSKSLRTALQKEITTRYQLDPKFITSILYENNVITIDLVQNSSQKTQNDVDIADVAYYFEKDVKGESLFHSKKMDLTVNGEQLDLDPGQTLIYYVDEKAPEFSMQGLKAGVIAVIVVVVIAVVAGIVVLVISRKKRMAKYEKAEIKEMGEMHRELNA

“chimeric receptor GA733-γ (scFv of MAb GA733 joined to the γ chain of the Fc receptor)” registered a % Specific Lysis of CY13, effector:target 3.3:1 of 10.3%; a % Specific Lysis of CY13, effector:target 10:1 of 22.2%; a % Specific Lysis of CY13, effector:target 30:1 of 38.7%; a % Specific Lysis of CY13, effector:target 90:1 of 52.2%. The substance also displayed a GM-CSF production by PBL (stimulator CY13) (pg/ml/5 × 10^5 PBL/24 hours) of 1280 and a GM-CSF production by PBL (stimulator GREM) (pg/ml/5 × 10^5 PBL/24 hours) of 2980.

For the origin of these results see patent US8211422.
